Assay in all cases: competitive phage ELISA, soluble IGFBP-1 vs coated IGFBP-1
On the technique in general: An ELISA detects its analyte on a solid surface through an enzyme-linked reagent.

For assay [1], the target named is T1, IGF-I L14A (G1S-A70V background) displayed on phage (human; bacteriophage M13).
T1 construct: not shown: M13 gene III fragment (residues 249-406, display carrier) and the IGF-g3 junction
T1 chain: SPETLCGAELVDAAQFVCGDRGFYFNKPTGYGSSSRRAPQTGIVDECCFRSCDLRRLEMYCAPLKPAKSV

For assay [2], the target named is T2, IGF-I E58A (G1S-A70V background) displayed on phage (human; bacteriophage M13).
T2 construct: not shown: M13 gene III fragment (residues 249-406), the display partner, and its junction to IGF-I
T2 chain: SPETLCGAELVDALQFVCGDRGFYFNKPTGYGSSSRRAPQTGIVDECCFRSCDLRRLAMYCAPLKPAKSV

In assay [3] the target is T3, IGF-I S69A (G1S-A70V background) displayed on phage (human; bacteriophage M13).
T3 construct: not shown: Display carrier: M13 gene III protein fragment (residues 249-406) and its junction to Val70

Assay [4] has as its target T4, IGF-I G30A (G1S-A70V background) displayed on phage (human; bacteriophage M13).
T4 construct: not shown: Display carrier: M13 gene III protein fragment (residues 249-406) and the junction to it
T4 chain: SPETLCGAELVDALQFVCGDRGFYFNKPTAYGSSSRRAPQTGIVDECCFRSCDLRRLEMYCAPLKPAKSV

Assay [5] addresses T5, IGF-I S33A (G1S-A70V background) displayed on phage (human; bacteriophage M13).
T5 construct: not shown: Display carrier: M13 gene III protein fragment (residues 249-406) and the junction to it
T5 chain: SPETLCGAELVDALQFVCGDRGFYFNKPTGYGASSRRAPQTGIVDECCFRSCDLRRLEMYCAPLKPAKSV

Assay [6] addresses T6, IGF-I K68A (G1S-A70V background) displayed on phage (human; bacteriophage M13).
T6 construct: not shown: Display carrier: M13 gene III protein fragment (residues 249-406) and its junction to Val70

In assay [7] the target is T7, IGF-I K27A (G1S-A70V background) displayed on phage (human; bacteriophage M13).
T7 construct: not shown: Display carrier: M13 gene III protein fragment (residues 249-406) and the junction to it
T7 chain: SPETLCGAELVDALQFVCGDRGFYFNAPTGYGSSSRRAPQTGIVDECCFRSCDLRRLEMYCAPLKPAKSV

Assay [8] has as its target T8, IGF-I S1G (single mutant of G1S-A70V) displayed on phage (human; bacteriophage M13, UniProt P05019 49-117).
T8 construct: not shown: Display carrier: M13 gene III protein fragment (residues 249-406) and its junction to Val70

Assay [9] concerns the target T9, IGF-I L57A (G1S-A70V background) displayed on phage (human; bacteriophage M13).
T9 construct: not shown: M13 gene III fragment (residues 249-406), the display partner, and its junction to IGF-I
T9 chain: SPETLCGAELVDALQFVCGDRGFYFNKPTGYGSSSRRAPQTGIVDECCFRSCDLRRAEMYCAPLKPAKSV

For assay [10], the target named is T10, IGF-I D53A (G1S-A70V background) displayed on phage (human; bacteriophage M13).
T10 construct: not shown: Display carrier: M13 gene III protein fragment (residues 249-406) and the junction to it
T10 chain: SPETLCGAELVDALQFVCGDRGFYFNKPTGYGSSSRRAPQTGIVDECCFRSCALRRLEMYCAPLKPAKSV

The target in assay [11] is T11, IGF-I S51A (G1S-A70V background) displayed on phage (human; bacteriophage M13).
T11 construct: not shown: Display carrier: M13 gene III protein fragment (residues 249-406) and the junction to it
T11 chain: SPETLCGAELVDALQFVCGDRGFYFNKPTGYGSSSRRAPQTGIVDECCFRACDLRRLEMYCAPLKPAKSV

The target of assay [12] is T12, IGF-I F16A (G1S-A70V background) displayed on phage (human; bacteriophage M13).
T12 construct: not shown: M13 gene III fragment (residues 249-406, display carrier) and the IGF-g3 junction
T12 chain: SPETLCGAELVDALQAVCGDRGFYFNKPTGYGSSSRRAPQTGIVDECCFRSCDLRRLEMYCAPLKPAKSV

Assay [13] deals with T13, IGF-I K65A (G1S-A70V background) displayed on phage (human; bacteriophage M13).
T13 construct: not shown: M13 gene III fragment (residues 249-406), the display partner, and its junction to IGF-I
T13 chain: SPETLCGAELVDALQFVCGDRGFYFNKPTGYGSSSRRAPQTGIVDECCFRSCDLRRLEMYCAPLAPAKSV

Assay [14] concerns the target T14, IGF-I R56A (G1S-A70V background) displayed on phage (human; bacteriophage M13).
T14 construct: not shown: M13 gene III fragment (residues 249-406), the display partner, and its junction to IGF-I
T14 chain: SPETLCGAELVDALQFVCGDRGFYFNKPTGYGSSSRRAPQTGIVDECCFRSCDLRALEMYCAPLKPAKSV

Assay [15] addresses T15, IGF-I R55A (G1S-A70V background) displayed on phage (human; bacteriophage M13).
T15 construct: not shown: Display carrier: M13 gene III protein fragment (residues 249-406) and the junction to it
T15 chain: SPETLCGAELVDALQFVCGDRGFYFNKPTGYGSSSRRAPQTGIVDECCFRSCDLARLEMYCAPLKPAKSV

The target in assay [16] is T16, IGF-I L10A (G1S-A70V background) displayed on phage (human; bacteriophage M13).
T16 construct: not shown: M13 gene III fragment (residues 249-406, display carrier) and the IGF-g3 junction
T16 chain: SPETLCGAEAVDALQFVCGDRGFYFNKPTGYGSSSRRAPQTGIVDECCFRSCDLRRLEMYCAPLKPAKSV

The target in assay [17] is T17, IGF-I V17A (G1S-A70V background) displayed on phage (human; bacteriophage M13).
T17 construct: not shown: M13 gene III fragment (residues 249-406, display carrier) and the IGF-g3 junction
T17 chain: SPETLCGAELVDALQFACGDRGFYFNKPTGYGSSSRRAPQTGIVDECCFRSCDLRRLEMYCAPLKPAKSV

Assay [18] deals with T18, IGF-I P66A (G1S-A70V background) displayed on phage (human; bacteriophage M13).
T18 construct: not shown: Display carrier: M13 gene III protein fragment (residues 249-406) and its junction to Val70

Consider 1 molecule from patent publication EP1506972A1 (Genentech Inc., dated 2005).

B1: human IGFBP-1 (other, UniProt P08833 26-259, looked up)
chain: APWQCAPCSAEKLALCPPVSASCSEVTRSAGCGCCPMCALPLGAACGVATARCARGLSCRALPGEQQPLHALTRGQGACVQESDASAPHAAEAGSPESPESTEITEEELLDNFHLMAPSEEDHSILWDAISTYDGSKALHVTNIKKWKEPCRIELYRVVESLAKAQETSGEEISKFYLPNCNKNGFYHSRQCETSMDGEAGLCWCVYPWNGKRIPGSPEIRGDPNCQIYFNVQN
notes: Secreted recombinant protein
For the molecule B1, the “relative IC50 (IC50mut/IC50 G1S-A70V)” value in assay [1] turned out to be 4.5 fold; in [2], 1.5 fold; in assay [3], 1.6 fold; in [4] it was 0.9 fold; in [5], 1.1 fold; in assay [6], 1.3 fold. The “relative IC50 (IC50mut/IC50 G1S-A70V)” value in assay [7] came out at 1.6 fold; in [8] it was 1.4 fold; in [9], 2.7 fold; in [10], 1.9 fold; in assay [11], 1.6 fold; in [12], 7 fold. The “relative IC50 (IC50mut/IC50 G1S-A70V)” value in assay [13] is 1.5 fold; in assay [14], 1.6 fold; in assay [15], 1.1 fold; in assay [16], 37.9 fold; in assay [17], 5.2 fold; in assay [18], 1.1 fold.
